Results published in the supplement of paper PMC10126150.
± gives the standard deviation of the averaged measurements.

System: ATP
Assay: switch fluorescence ratio, 500 uM ATP over buffer (Cy3 cluster intensity, sum of 5 cycles each) (fold (ratio)); higher = stronger signal-on switching upon ATP binding; sequences stand for … in TCGTCGGCAGCGTCAGATGTGTATAAGAGACAGTTTTTTTTTTTTTTTTTTTTTTTTT…TC
Conditions: aptamer strand: ATP DNA aptamer (quencher-CACCTGGGGGAGTATTGCGGAGGAAGG + anchor), 100 nM annealed; ATP concentration: 500 uM
Summary of the method: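 Switching-strand clusters labelled with Cy3 on a modified Illumina MiSeq flow-cell were annealed to 100 nM quencher-labelled ATP aptamer, imaged in selection buffer, and re-imaged after 15 min with 500 uM ATP at 22 °C. This was done over five cycles with NaOH stripping and re-annealing in between. The fluorescence ratio is summed target-cycle over summed buffer-cycle Cy3 intensity per cluster, averaged per switch-domain sequence, excluding clusters outside 100-1000 RFU.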
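Further: ATP exposure 15 min at 22 °C before imaging.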

Row | Sequence | switch fluorescence ratio
1 | TTTGAATAAG | 0.995 ± 0.023
2 | TTTGACATTT | 1.02 ± 0.03
3 | TTTGACCTGG | 0.981 ± 0.043
4 | TTTGACGAAT | 1.012 ± 0.0081
5 | TTTGACTTGT | 1.005 ± 0.0045
6 | TTTGAGAGAT | 0.991 ± 0.029
7 | TTTGAGATAC | 1.39 ± 0.38
8 | TTTGAGATCT | 0.989 ± 0.027
9 | TTTGAGATGG | 0.99 ± 0.024
10 | TTTGAGCATA | 1.06 ± 0.042
11 | TTTGAGCGTT | 1.01 ± 0.04
12 | TTTGAGCTAT | 1.1 ± 0.029
13 | TTTGAGGATT | 1 ± 0.027
14 | TTTGAGTAAT | 1.027 ± 0.0017
15 | TTTGAGTGAC | 1.01 ± 0.031
16 | TTTGAGTGGG | 0.994 ± 0.025
17 | TTTGATATGG | 0.999 ± 0.038
18 | TTTGATCTTT | 1.01 ± 0.035
19 | TTTGATGAGC | 1.01 ± 0.034
20 | TTTGATGCCG | 0.973 ± 0.03
21 | TTTGATGTTA | 0.981 ± 0.034
22 | TTTGATTAT | 0.996 ± 0.012
23 | TTTGATTTGT | 1.042 ± 0.0087
24 | TTTGATTTTT | 0.984 ± 0.024
25 | TTTGCAAAGT | 1.005 ± 0.0069
26 | TTTGCAACAG | 0.986 ± 0.023

Row | Sequence | switch fluorescence ratio
27 | TTTGCACCCT | 1.03 ± 0.041
28 | TTTGCAGCAT | 1.13 ± 0.22
29 | TTTGCAGGCA | 1.03 ± 0.011
30 | TTTGCAGGGC | 1.05 ± 0.012
31 | TTTGCATCTC | 1.03 ± 0.044
32 | TTTGCCACTT | 0.991 ± 0.011
33 | TTTGCCAGGA | 0.997 ± 0.0063
34 | TTTGCCATAG | 1.02 ± 0.022
35 | TTTGCCTCGT | 1.04 ± 0.025
36 | TTTGCGCGTT | 0.985 ± 0.018
37 | TTTGCGCTCG | 0.968 ± 0.037
38 | TTTGCTCGCC | 1.01 ± 0.04
39 | TTTGCTGAAC | 1.065 ± 0.0086
40 | TTTGCTTCCG | 1.1 ± 0.084
41 | TTTGCTTTTA | 1.04 ± 0.023
42 | TTTGGAAGGA | 0.998 ± 0.04
43 | TTTGGAAGT | 0.991 ± 0.028
44 | TTTGGAGGTT | 1.11 ± 0.2
45 | TTTGGATAAA | 1.04 ± 0.049
46 | TTTGGCAATT | 1.73 ± 0.57
47 | TTTGGCCAGC | 0.975 ± 0.051
48 | TTTGGCGATT | 0.962 ± 0.017
49 | TTTGGCTAGT | 1.01 ± 0.019
50 | TTTGGCTGTA | 0.97 ± 0.012
51 | TTTGGGAAGT | 1 ± 0.025
52 | TTTGGGACTC | 0.9731 ± 0.0023

Row | Sequence | switch fluorescence ratio
53 | TTTGGGCAGC | 1.083 ± 0.0087
54 | TTTGGGCCAT | 1.04 ± 0.12
55 | TTTGGGCTAT | 1.021 ± 0.0064
56 | TTTGGGGACT | 0.984 ± 0.011
57 | TTTGGGGCTT | 1 ± 0.04
58 | TTTGGGGGGC | 1.05 ± 0.12
59 | TTTGGGGTCT | 1.01 ± 0.1
60 | TTTGGGGTGG | 0.974 ± 0.031
61 | TTTGGGTCGG | 0.993 ± 0.018
62 | TTTGGGTGGT | 1.09 ± 0.21
63 | TTTGGGTTGC | 0.982 ± 0.014
64 | TTTGGTAATG | 1.01 ± 0.021
65 | TTTGGTAGAG | 0.98 ± 0.018
66 | TTTGGTCCCT | 0.993 ± 0.016
67 | TTTGGTGAGG | 1.01 ± 0.02
68 | TTTGGTGCCG | 1.17 ± 0.23
69 | TTTGGTGGCT | 1.01 ± 0.015
70 | TTTGGTGTAG | 1.02 ± 0.015
71 | TTTGGTTCGA | 0.977 ± 0.012
72 | TTTGGTTGTT | 0.988 ± 0.019
73 | TTTGGTTTAC | 1.01 ± 0.019
74 | TTTGGTTTT | 0.988 ± 0.027
75 | TTTGTAAAAA | 0.9829 ± 0.0094
76 | TTTGTAAAAG | 0.977 ± 0.033
77 | TTTGTAAGGG | 0.986 ± 0.021
78 | TTTGTAAGTG | 0.988 ± 0.018

Row | Sequence | switch fluorescence ratio
79 | TTTGTACATT | 1.01 ± 0.011
80 | TTTGTACTCG | 1.01 ± 0.011
81 | TTTGTAGGCC | 0.989 ± 0.03
82 | TTTGTAGTCA | 1.05 ± 0.083
83 | TTTGTATACA | 1.01 ± 0.015
84 | TTTGTCGTTT | 1.03 ± 0.055
85 | TTTGTCTGTT | 1.03 ± 0.038
86 | TTTGTCTTC | 0.95 ± 0.015
87 | TTTGTGAGCA | 1.06 ± 0.08
88 | TTTGTGATTG | 0.985 ± 0.094
89 | TTTGTGGACT | 1.01 ± 0.031
90 | TTTGTGGGAG | 0.998 ± 0.02
91 | TTTGTGGGTG | 1.01 ± 0.019
92 | TTTGTGGTAT | 1.03 ± 0.047
93 | TTTGTGGTCG | 1.02 ± 0.031
94 | TTTGTGGTTA | 1.04 ± 0.056
95 | TTTGTGGTTT | 0.985 ± 0.043
96 | TTTGTGTAGG | 1.02 ± 0.049
97 | TTTGTGTCGT | 0.982 ± 0.053
98 | TTTGTGTCTG | 0.998 ± 0.012
99 | TTTGTTACTA | 1 ± 0.1
100 | TTTGTTAGCG | 1.01 ± 0.053
101 | TTTGTTCAT | 0.998 ± 0.028
102 | TTTGTTCGTT | 1.01 ± 0.029
103 | TTTGTTGACC | 1.02 ± 0.013
104 | TTTGTTGCTT | 0.989 ± 0.012

Row | Sequence | switch fluorescence ratio
105 | TTTGTTGGGT | 1 ± 0.022
106 | TTTGTTGTGG | 1.01 ± 0.048
107 | TTTGTTTAGA | 0.9917 ± 0.0069
108 | TTTGTTTGTT | 0.986 ± 0.02
109 | TTTTAAAAAT | 1.03 ± 0.056
110 | TTTTAAAGCA | 1.01 ± 0.03
111 | TTTTAAATGA | 1 ± 0.021
112 | TTTTAACATA | 1.02 ± 0.016
113 | TTTTAACTAC | 1.18 ± 0.15
114 | TTTTAATGAT | 0.983 ± 0.024
115 | TTTTAATTAA | 1.01 ± 0.044
116 | TTTTACACCT | 1.23 ± 0.2
117 | TTTTACAGCG | 1 ± 0.036
118 | TTTTACAGGT | 1.01 ± 0.028
119 | TTTTACATTC | 1.03 ± 0.056
120 | TTTTACCATT | 1.09 ± 0.061
121 | TTTTACCCAA | 1.04 ± 0.024
122 | TTTTACCTTG | 1.028 ± 0.01
123 | TTTTACGGTA | 1.12 ± 0.022
124 | TTTTACGTGC | 1.02 ± 0.05
125 | TTTTACGTTG | 0.995 ± 0.01
126 | TTTTACTGCA | 1.07 ± 0.073
127 | TTTTACTTGC | 1.0115 ± 0.00074
128 | TTTTAGACAA | 1.18 ± 0.17
129 | TTTTAGAGCT | 1.02 ± 0.018
130 | TTTTAGAGGG | 0.982 ± 0.034

Row | Sequence | switch fluorescence ratio
131 | TTTTAGATAT | 0.98713 ± 0.00039
132 | TTTTAGATCG | 0.997 ± 0.016
133 | TTTTAGGCGT | 0.99 ± 0.013
134 | TTTTAGGGAT | 1.03 ± 0.021
135 | TTTTAGGGGG | 1 ± 0.038
136 | TTTTAGGGTT | 1.01 ± 0.027
137 | TTTTAGTAGG | 1.04 ± 0.091
138 | TTTTAGTCT | 1.01 ± 0.023
139 | TTTTAGTCTA | 0.9809 ± 0.0021
140 | TTTTAGTGGG | 1.01 ± 0.039
141 | TTTTAGTTAA | 1.01 ± 0.03
142 | TTTTATACG | 1.36 ± 0.51
143 | TTTTATAGGT | 0.998 ± 0.017
144 | TTTTATATCC | 0.963 ± 0.028
145 | TTTTATGAGC | 1.03 ± 0.045
146 | TTTTATGGAG | 0.998 ± 0.013
147 | TTTTATGGT | 1.013 ± 0.0067
148 | TTTTATTAGT | 0.989 ± 0.044
149 | TTTTATTCTG | 1.01 ± 0.038
150 | TTTTATTGAA | 1 ± 0.03
151 | TTTTATTGTA | 0.999 ± 0.032
152 | TTTTATTGTG | 1 ± 0.027
153 | TTTTATTTTA | 0.991 ± 0.039
